# In publication PMC11371640, “Structural deficits in key domains of Shank2 lead to alterations in postsynaptic nanoclusters and to a neurodevelopmental disorder in humans” (Molecular Psychiatry, 2022):
# T1: GST fusion protein of the GKAP C-terminus (50 C-terminal residues), P97836-4
# T1 chain: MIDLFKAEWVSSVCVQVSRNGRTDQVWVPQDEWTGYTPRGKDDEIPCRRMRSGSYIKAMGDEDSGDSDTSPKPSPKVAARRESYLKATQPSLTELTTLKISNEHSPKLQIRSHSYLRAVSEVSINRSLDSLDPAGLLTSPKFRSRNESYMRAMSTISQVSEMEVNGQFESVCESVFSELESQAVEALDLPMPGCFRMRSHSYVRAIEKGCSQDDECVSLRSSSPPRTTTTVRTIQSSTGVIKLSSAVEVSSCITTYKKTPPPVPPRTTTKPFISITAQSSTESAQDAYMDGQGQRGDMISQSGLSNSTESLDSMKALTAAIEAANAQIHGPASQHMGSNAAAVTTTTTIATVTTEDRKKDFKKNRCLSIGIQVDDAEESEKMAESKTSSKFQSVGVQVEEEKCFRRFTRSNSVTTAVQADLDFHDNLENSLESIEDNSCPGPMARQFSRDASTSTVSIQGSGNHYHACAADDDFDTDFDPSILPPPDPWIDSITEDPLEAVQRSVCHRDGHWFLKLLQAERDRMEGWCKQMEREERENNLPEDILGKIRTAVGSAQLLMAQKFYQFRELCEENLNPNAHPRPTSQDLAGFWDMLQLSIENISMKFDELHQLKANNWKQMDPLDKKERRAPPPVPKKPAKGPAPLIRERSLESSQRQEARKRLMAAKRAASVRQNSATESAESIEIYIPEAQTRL
# Target: T1, GST fusion protein of the GKAP …
# Test: GST pulldown, Western blot quantification
# Details: chain shown with the change; 293T cell lysates; four independent experiments; parent: est. 3.8; read off a plot
row,response (Precipitate / Input),Binder
1,2.4,"mCherry-tagged human Shank2a (WT), Q9UPX8-3 S610Y (protein) MPRSPTSSEDEMAQSFSDYSVGSESDSSKEETIYDTIRATAEKPGGARTEESQGNTLVIRVVIHDLQQTKCIRFNPDATVWVAKQRILCTLTQSLKDVLNYGLFQPASNGRDGKFLDEERLLREYPQPVGEGVPSLEFRYKKRVYKQASLDEKQLAKLHTKTNLKKCMDHIQHRLVEKITKMLDRGLDPNFHDPETGETPLTLAAQLDDSVEVIKALKNGGAHLDFRAKDGMTALHKAARARNQVALKTLLELGASPDYKDSYGLTPLYHTAIVGGDPYCCELLLHEHATVCCKDENGWHEIHQACRYGHVQHLEHLLFYGADMSAQNASGNTALHICALYNQDSCARVLLFRGGNKELKNYNSQTPFQVAIIAGNFELAEYIKNHKETDIVPFREAPAYSNRRRRPPNTLAAPRVLLRSNSDNNLNASAPDWAVCSTATSHRSLSPQLLQQMPSKPEGAAKTIGSYVPGPRSRSPSLNRLGGAGEDGKRPQPLWHVGSPFALGANKDSLSAFEYPGPKRKLYSAVPGRLFVAVKPYQPQVDGEIPLHRGDRVKVLSIGEGGFWEGSARGHIGWFPAECVEEVQCKPRDSQAETRADRSKKLFRHYTVGYYDSFDTSSDCIIEEKTVVLQKKDNEGFGFVLRGAKADTPIEEFTPTPAFPALQYLESVDEGGVAWQAGLRTGDFLIEVNNENVVKVGHRQVVNMIRQGGNHLVLKVVTVTRNLDPDDTARKKAPPPPKRAPTTALTLRSKSMTSELEELVDKASVRKKKDKPEEIVPASKPSRAAENMAVEPRVATIKQRPSSRCFPAGSDMNSVYERQGIAVMTPTVPGSPKAPFLGIPRGTMRRQKSIDSRIFLSGITEEERQFLAPPMLKFTRSLSMPDTSEDIPPPPQSVPPSPPPPSPTTYNCPKSPTPRVYGTIKPAFNQNSAAKVSPATRSDTVATMMREKGMYFRRELDRYSLDSEDLYSRNAGPQANFRNKRGQMPENPYSEVGKIASKAVYVPAKPARRKGMLVKQSNVEDSPEKTCSIPIPTIIVKEPSTSSSGKSSQGSSMEIDPQAPEPPSQLRPDESLTVSSPFAAAIAGAVRDREKRLEARRNSPAFLSTDLGDEDVGLGPPAPRTRPSMFPEEGDFADEDSAEQLSSPMPSATPREPENHFVGGAEASAPGEAGRPLNSTSKAQGPESSPAVPSASSGTAGPGNYVHPLTGRLLDPSSPLALALSARDRAMKESQQGPKGEAPKADLNKPLYIDTKMRPSLDAGFPTVTRQNTRGPLRRQETENKYETDLGRDRKGDDKKNMLIDIMDTSQQKSAGLLMVHTVDATKLDNALQEEDEKAEVEMKPDSSPSEVPEGVSETEGALQISAAPEPTTVPGRTIVAVGSMEEAVILPFRIPPPPLASVDLDEDFIFTEPLPPPLEFANSFDIPDDRAASVPALSDLVKQKKSDTPQSPSLNSSQPTNSADSKKPASLSNCLPASFLPPPESFDAVADSGIEEVDSRSSSDHHLETTSTISTVSSISTLSSEGGENVDTCTVYADGQAFMVDKPPVPPKPKMKPIIHKSNALYQDALVEEDVDSFVIPPPAPPPPPGSAQPGMAKVLQPRTSKLWGDVTEIKSPILSGPKANVISELNSILQQMNREKLAKPGEGLDSPMGAKSASLAPRSPEIMSTISGTRSTTVTFTVRPGTSQPITLQSRPPDYESRTSGTRRAPSPVVSPTEMNKETLPAPLSAATASPSPALSDVFSLPSQPPSGDLFGLNPAGRSRSPSPSILQQPISNKPFTTKPVHLWTKPDVADWLESLNLGEHKEAFMDNEIDGSHLPNLQKEDLIDLGVTRVGHRMNIERALKQLLDR"
2,0.3,"mCherry-tagged human Shank2a (WT), Q9UPX8-3 G643R (protein) MPRSPTSSEDEMAQSFSDYSVGSESDSSKEETIYDTIRATAEKPGGARTEESQGNTLVIRVVIHDLQQTKCIRFNPDATVWVAKQRILCTLTQSLKDVLNYGLFQPASNGRDGKFLDEERLLREYPQPVGEGVPSLEFRYKKRVYKQASLDEKQLAKLHTKTNLKKCMDHIQHRLVEKITKMLDRGLDPNFHDPETGETPLTLAAQLDDSVEVIKALKNGGAHLDFRAKDGMTALHKAARARNQVALKTLLELGASPDYKDSYGLTPLYHTAIVGGDPYCCELLLHEHATVCCKDENGWHEIHQACRYGHVQHLEHLLFYGADMSAQNASGNTALHICALYNQDSCARVLLFRGGNKELKNYNSQTPFQVAIIAGNFELAEYIKNHKETDIVPFREAPAYSNRRRRPPNTLAAPRVLLRSNSDNNLNASAPDWAVCSTATSHRSLSPQLLQQMPSKPEGAAKTIGSYVPGPRSRSPSLNRLGGAGEDGKRPQPLWHVGSPFALGANKDSLSAFEYPGPKRKLYSAVPGRLFVAVKPYQPQVDGEIPLHRGDRVKVLSIGEGGFWEGSARGHIGWFPAECVEEVQCKPRDSQAETRADRSKKLFRHYTVGSYDSFDTSSDCIIEEKTVVLQKKDNEGFGFVLRRAKADTPIEEFTPTPAFPALQYLESVDEGGVAWQAGLRTGDFLIEVNNENVVKVGHRQVVNMIRQGGNHLVLKVVTVTRNLDPDDTARKKAPPPPKRAPTTALTLRSKSMTSELEELVDKASVRKKKDKPEEIVPASKPSRAAENMAVEPRVATIKQRPSSRCFPAGSDMNSVYERQGIAVMTPTVPGSPKAPFLGIPRGTMRRQKSIDSRIFLSGITEEERQFLAPPMLKFTRSLSMPDTSEDIPPPPQSVPPSPPPPSPTTYNCPKSPTPRVYGTIKPAFNQNSAAKVSPATRSDTVATMMREKGMYFRRELDRYSLDSEDLYSRNAGPQANFRNKRGQMPENPYSEVGKIASKAVYVPAKPARRKGMLVKQSNVEDSPEKTCSIPIPTIIVKEPSTSSSGKSSQGSSMEIDPQAPEPPSQLRPDESLTVSSPFAAAIAGAVRDREKRLEARRNSPAFLSTDLGDEDVGLGPPAPRTRPSMFPEEGDFADEDSAEQLSSPMPSATPREPENHFVGGAEASAPGEAGRPLNSTSKAQGPESSPAVPSASSGTAGPGNYVHPLTGRLLDPSSPLALALSARDRAMKESQQGPKGEAPKADLNKPLYIDTKMRPSLDAGFPTVTRQNTRGPLRRQETENKYETDLGRDRKGDDKKNMLIDIMDTSQQKSAGLLMVHTVDATKLDNALQEEDEKAEVEMKPDSSPSEVPEGVSETEGALQISAAPEPTTVPGRTIVAVGSMEEAVILPFRIPPPPLASVDLDEDFIFTEPLPPPLEFANSFDIPDDRAASVPALSDLVKQKKSDTPQSPSLNSSQPTNSADSKKPASLSNCLPASFLPPPESFDAVADSGIEEVDSRSSSDHHLETTSTISTVSSISTLSSEGGENVDTCTVYADGQAFMVDKPPVPPKPKMKPIIHKSNALYQDALVEEDVDSFVIPPPAPPPPPGSAQPGMAKVLQPRTSKLWGDVTEIKSPILSGPKANVISELNSILQQMNREKLAKPGEGLDSPMGAKSASLAPRSPEIMSTISGTRSTTVTFTVRPGTSQPITLQSRPPDYESRTSGTRRAPSPVVSPTEMNKETLPAPLSAATASPSPALSDVFSLPSQPPSGDLFGLNPAGRSRSPSPSILQQPISNKPFTTKPVHLWTKPDVADWLESLNLGEHKEAFMDNEIDGSHLPNLQKEDLIDLGVTRVGHRMNIERALKQLLDR"
3,2.8,"mCherry-tagged human Shank2a (WT), Q9UPX8-3 N690S (protein) MPRSPTSSEDEMAQSFSDYSVGSESDSSKEETIYDTIRATAEKPGGARTEESQGNTLVIRVVIHDLQQTKCIRFNPDATVWVAKQRILCTLTQSLKDVLNYGLFQPASNGRDGKFLDEERLLREYPQPVGEGVPSLEFRYKKRVYKQASLDEKQLAKLHTKTNLKKCMDHIQHRLVEKITKMLDRGLDPNFHDPETGETPLTLAAQLDDSVEVIKALKNGGAHLDFRAKDGMTALHKAARARNQVALKTLLELGASPDYKDSYGLTPLYHTAIVGGDPYCCELLLHEHATVCCKDENGWHEIHQACRYGHVQHLEHLLFYGADMSAQNASGNTALHICALYNQDSCARVLLFRGGNKELKNYNSQTPFQVAIIAGNFELAEYIKNHKETDIVPFREAPAYSNRRRRPPNTLAAPRVLLRSNSDNNLNASAPDWAVCSTATSHRSLSPQLLQQMPSKPEGAAKTIGSYVPGPRSRSPSLNRLGGAGEDGKRPQPLWHVGSPFALGANKDSLSAFEYPGPKRKLYSAVPGRLFVAVKPYQPQVDGEIPLHRGDRVKVLSIGEGGFWEGSARGHIGWFPAECVEEVQCKPRDSQAETRADRSKKLFRHYTVGSYDSFDTSSDCIIEEKTVVLQKKDNEGFGFVLRGAKADTPIEEFTPTPAFPALQYLESVDEGGVAWQAGLRTGDFLIEVNSENVVKVGHRQVVNMIRQGGNHLVLKVVTVTRNLDPDDTARKKAPPPPKRAPTTALTLRSKSMTSELEELVDKASVRKKKDKPEEIVPASKPSRAAENMAVEPRVATIKQRPSSRCFPAGSDMNSVYERQGIAVMTPTVPGSPKAPFLGIPRGTMRRQKSIDSRIFLSGITEEERQFLAPPMLKFTRSLSMPDTSEDIPPPPQSVPPSPPPPSPTTYNCPKSPTPRVYGTIKPAFNQNSAAKVSPATRSDTVATMMREKGMYFRRELDRYSLDSEDLYSRNAGPQANFRNKRGQMPENPYSEVGKIASKAVYVPAKPARRKGMLVKQSNVEDSPEKTCSIPIPTIIVKEPSTSSSGKSSQGSSMEIDPQAPEPPSQLRPDESLTVSSPFAAAIAGAVRDREKRLEARRNSPAFLSTDLGDEDVGLGPPAPRTRPSMFPEEGDFADEDSAEQLSSPMPSATPREPENHFVGGAEASAPGEAGRPLNSTSKAQGPESSPAVPSASSGTAGPGNYVHPLTGRLLDPSSPLALALSARDRAMKESQQGPKGEAPKADLNKPLYIDTKMRPSLDAGFPTVTRQNTRGPLRRQETENKYETDLGRDRKGDDKKNMLIDIMDTSQQKSAGLLMVHTVDATKLDNALQEEDEKAEVEMKPDSSPSEVPEGVSETEGALQISAAPEPTTVPGRTIVAVGSMEEAVILPFRIPPPPLASVDLDEDFIFTEPLPPPLEFANSFDIPDDRAASVPALSDLVKQKKSDTPQSPSLNSSQPTNSADSKKPASLSNCLPASFLPPPESFDAVADSGIEEVDSRSSSDHHLETTSTISTVSSISTLSSEGGENVDTCTVYADGQAFMVDKPPVPPKPKMKPIIHKSNALYQDALVEEDVDSFVIPPPAPPPPPGSAQPGMAKVLQPRTSKLWGDVTEIKSPILSGPKANVISELNSILQQMNREKLAKPGEGLDSPMGAKSASLAPRSPEIMSTISGTRSTTVTFTVRPGTSQPITLQSRPPDYESRTSGTRRAPSPVVSPTEMNKETLPAPLSAATASPSPALSDVFSLPSQPPSGDLFGLNPAGRSRSPSPSILQQPISNKPFTTKPVHLWTKPDVADWLESLNLGEHKEAFMDNEIDGSHLPNLQKEDLIDLGVTRVGHRMNIERALKQLLDR"
